Test results published in article PMC3088709, “Phosphorylation of the Yeast γ-Tubulin Tub4 Regulates Microtubule Function” (PLoS ONE, 2011).

Target: T1, Spc97-3HA (S. cerevisiae, UniProt P38863 1-823)
T1 construct: Spc97, budding yeast; tagged with 3HA in the TUB4-AID strain; source: S. cerevisiae (TUB4-AID SPC97-3HA strain), in lysate
T1 sequence (looked up): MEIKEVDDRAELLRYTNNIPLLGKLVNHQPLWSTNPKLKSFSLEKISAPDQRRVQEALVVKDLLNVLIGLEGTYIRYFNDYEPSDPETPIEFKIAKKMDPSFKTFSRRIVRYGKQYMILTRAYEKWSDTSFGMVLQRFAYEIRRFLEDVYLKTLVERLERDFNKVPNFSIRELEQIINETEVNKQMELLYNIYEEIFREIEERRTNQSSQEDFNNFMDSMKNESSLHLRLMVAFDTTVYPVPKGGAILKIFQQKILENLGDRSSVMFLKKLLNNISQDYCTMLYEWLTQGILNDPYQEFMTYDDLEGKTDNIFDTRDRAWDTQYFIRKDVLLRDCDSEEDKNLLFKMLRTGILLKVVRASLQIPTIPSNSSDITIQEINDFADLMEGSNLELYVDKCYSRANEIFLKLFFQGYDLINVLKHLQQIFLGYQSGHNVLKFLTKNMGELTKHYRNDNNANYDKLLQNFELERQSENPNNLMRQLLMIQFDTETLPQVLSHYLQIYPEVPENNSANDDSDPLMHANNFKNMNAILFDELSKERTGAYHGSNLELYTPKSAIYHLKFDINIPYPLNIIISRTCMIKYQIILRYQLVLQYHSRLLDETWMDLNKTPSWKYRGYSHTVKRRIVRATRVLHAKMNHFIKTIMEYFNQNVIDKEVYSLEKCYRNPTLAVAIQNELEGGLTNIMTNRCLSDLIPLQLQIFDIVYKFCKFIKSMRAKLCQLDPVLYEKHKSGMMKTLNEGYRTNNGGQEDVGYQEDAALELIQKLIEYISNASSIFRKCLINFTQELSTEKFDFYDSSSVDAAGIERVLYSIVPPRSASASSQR
Assay: co-IP; anti-HA immunoprecipitation of Spc97-3HA from lysates of TUB4-AID SPC97-3HA cells carrying pRS305 with TUB4, tub4-S74E, tub4-S100E or tub4-S360D, after 2 h of 0.5 mM IAA at 30°C to deplete Tub4-AID; blots with anti-Tub4, anti-Spc98, anti-Spc110 and anti-HA, normalised to precipitated Spc97-3HA
Conditions: partners not purified

B1: Tub4-S74E (natural protein, S. cerevisiae, UniProt P53378 1-473, looked up)
chain: MGGEIITLQAGQCGNHVGKFLWSQLAKEHAIGTDGLSQLPDSSTERDDDTKPFFRENSRNKFTPRAIMMDSEPEVIADVENTFRGFFDPRNTWVASDGASAGNSWANGYDIGTRNQDDILNKIDKEIDSTDNFEGFQLLHSVAGGTGSGLGSNLLEALCDRYPKKILTTYSVFPARSSEVVVQSYNTILALRRLIEDSDATVVFDNASLLNISGKVFRNPNIDLQHTNQLISTIISSVTNSIRFPSYMYSSMSSIYSTLIPSPELHFLSPSFTPFTSDYIHDDIAHKGHSSYDVMLDLLDPSNSLVSTAMNNPTYFNVYNTIIGNVEPRQISRAMTKLQQRIKFPSWSSSAMHVNIGRRSPYLPLQPNENEVSGMMLSNMSTVVNVFENACNTFDKVFAKGAFLNNYNVGDLFQSMQNVQDEFAESREVVQSLMEDYVAAEQDSYLDDVLVDDENMVGELEEDLDADGDHKLV
notes: Tub4, gamma-tubulin of budding yeast, phospho-mimicking mutant; source: S. cerevisiae, from integrated pRS305-tub4-S74E, in lysate
amount in complexes with Spc97-3HA relative to WT Tub4: ~75 % of WT Tub4
